B1: SPSB4 (parent)
chain: LDMDEGTLSFIVDGQYLGVAFRGL
B2: VENTX (parent)
chain: VFQHHQYLSPLERKRLAREMQLSE

Variants of: B1
Test: protein stability index of a GFP-peptide fusion (GPS, HEK-293T) (PSI 1-6); higher = more stable
Conditions: c terminus: a fixed tail appended
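Note: lentivirally expressed fusions sorted by FACS into six bins by GFP to DsRed ratio, PSI derived from sequencing read proportions per bin multiplied by bin number.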

Protein stability index: each site, then its substitutions
L1: N 1.28 | W 2.76 | V 2.51 | Y 1.32 | T 1.86 | K 1.27 | I 2.59 | C 3.04 | F 2.48 | G 1.65 | A 1.83 | Q 1.53 | S 1.71 | E 1.66 | D 1.31 | R 2.09 | M 2.75 | H 2.12 | P 1.96
T7: E 1.31 | I 2.18 | V 1.86 | Y 2.04 | R 1.75 | Q 3.36 | D 2.11 | P 1.64 | L 1.99 | F 1.81 | G 2.27 | A 2.34 | M 2.53 | N 1.23 | K 2.03 | S 3.54 | H 1.94 | W 3.12
D2: S 2.1 | Q 1.65 | T 3.9 | P 2.26 | Y 2.74 | E 2.68 | R 2.74 | I 2.56 | V 2.35 | M 2.62 | L 2.87 | A 2.04 | W 2.23 | K 1.64 | H 2.12
F10: L 1.76 | R 2.21 | C 2.49 | T 2.44 | M 1.73 | E 3.13 | H 2.14 | Y 1.89 | W 2.33 | P 2.3 | S 2.13 | V 2.38 | Q 2 | A 1.84 | G 1.5 | K 2.37 | N 2.27 | D 2.79
I11: N 2.49 | L 3.07 | R 2.4 | Y 2.58 | P 2.25 | Q 2.31 | T 2.74 | D 1.68 | K 1.94 | H 3.77 | M 2.28 | V 1.47 | W 1.56 | S 2.63 | C 3.29 | G 2.45 | A 1.72 | E 1.39 | F 4.16
G6: S 4.16 | I 2.38 | R 2.28 | H 2.65 | D 1.87 | Q 3.01 | N 3.5 | W 2.88 | T 2.32 | K 2.78 | P 1.72 | E 1.98 | C 3.03 | A 3.24 | Y 3.87 | M 2.66 | F 2.25
E5: C 3.63 | P 1.42 | Y 2.27 | M 2.56 | F 2.59 | G 1.85 | L 2.51 | R 1.9 | V 3.95 | S 2.79 | H 3.53 | W 3.01 | I 3.72 | N 3.71 | D 2.77 | Q 2.7
L8: T 1.87 | V 4.24 | R 2.11 | C 3.35 | N 1.86 | A 1.27 | Q 2.12 | H 1.55 | E 1.94 | I 2.43 | F 2.3 | K 1.47 | D 2.21 | M 2.72 | P 1.88 | G 1.76 | W 3.21 | S 1.67
D4: H 3.59 | V 2.95 | T 2.45 | N 1.93 | C 1.66 | M 3.51 | S 2.52 | Q 2.4 | G 2.73 | L 4.51 | K 2.15 | I 3.21 | R 2.39 | A 1.71 | P 1.66
M3: G 2.09 | D 1.59 | N 1.52 | V 2.67 | C 2.17 | I 1.33 | Q 2.68 | F 2.33 | S 1.77 | P 1.74 | R 2.68 | E 1.42 | K 2.9 | L 3.27 | A 2.05 | H 2.39
S9: P 1.74 | H 2.95 | E 2.58 | T 2.45 | A 3.98 | Y 2.89 | L 1.75 | V 1.81 | C 2.76 | Q 2.01 | N 2.9 | G 2.99 | K 1.99 | D 1.87
V12: E 2.01 | D 1.99 | A 1.96 | C 3.24

Variants of: B2
Test: as above
Conditions: c terminus: a fixed tail appended

Protein stability index: each site, then its substitutions
R18: S 3 | D 2.77 | T 2.9 | A 2.28 | H 2.74 | E 2.8 | F 2.21 | L 2.33 | K 2.65 | W 2.21 | V 1.63 | C 2.58 | I 2.67 | P 2.13 | M 2.21 | Q 2.73 | G 2.68 | N 2.34 | Y 2
S23: H 2.37 | T 2.44 | M 2.4 | P 2.78 | N 2.25 | D 2.66 | A 3.5 | I 1.97 | R 2.33 | G 2.5 | E 3.23 | V 2.18 | Q 3.04 | F 2.98 | C 2.41 | L 2.84 | K 2.22 | Y 2.42 | W 2.04
L22: M 2.42 | P 2.68 | F 1.83 | N 3.04 | K 3.62 | Y 2.17 | I 1.93 | V 2.27 | H 2.93 | E 2.85 | D 3.29 | C 2.84 | Q 2.38 | R 2.44 | A 2.72 | W 1.96 | S 2.56 | T 3.12 | G 1.89
E19: H 2.17 | P 2.44 | A 2.08 | C 1.91 | Q 3.09 | L 1.81 | F 1.76 | R 2.38 | S 2.42 | Y 1.91 | I 1.86 | D 2.67 | K 1.94 | T 2.16 | N 3.28 | G 2.06 | W 1.91 | M 1.78 | V 1.91
Q21: E 2.54 | N 2.29 | P 2.64 | F 1.98 | T 2.49 | Y 3.06 | H 2.68 | G 2.51 | L 2.59 | V 2.44 | K 2.66 | C 2.5 | M 2.06 | R 2.99 | S 2.77 | A 2.49 | D 3.61 | W 2.43 | I 2.32
M20: V 2.29 | G 2.71 | R 3.25 | S 2.62 | H 2.57 | T 2.36 | N 2.53 | W 1.67 | P 2.78 | E 3.28 | F 2.04 | K 2.54 | D 3.1 | L 2.75 | Y 2.96 | I 2.39 | C 3.43 | Q 2.6 | A 2.8
A17: Y 3.02 | N 2.38 | R 2.98 | M 2.32 | K 2.75 | V 2.14 | S 3.1 | L 2.79 | T 2.97 | P 2.98 | W 2.24 | Q 2.59
E24: S 2.65 | F 1.93 | K 2.29 | N 2.37 | P 2.1 | R 1.95 | D 2.48 | I 2.23 | T 2.27 | H 2.47 | G 2.3 | Y 2.07 | M 2.39 | C 1.82 | A 2.14 | W 2.76 | Q 2.5 | V 1.39 | L 2.07

— the supplement of paper PMC10567573
